PMC11464722 (Nature Communications, 2024)

Biological target: SNAP-tagged murine µOR on HEK293 cells (murine, UniProt P42866, SNAP-Lumi4-Tb (terbium cryptate) on the SNAP tag)
Assay: AlphaScreen or HTRF

SNAP-tagged murine µOR on HEK293 cells, sequence (P42866 whole entry): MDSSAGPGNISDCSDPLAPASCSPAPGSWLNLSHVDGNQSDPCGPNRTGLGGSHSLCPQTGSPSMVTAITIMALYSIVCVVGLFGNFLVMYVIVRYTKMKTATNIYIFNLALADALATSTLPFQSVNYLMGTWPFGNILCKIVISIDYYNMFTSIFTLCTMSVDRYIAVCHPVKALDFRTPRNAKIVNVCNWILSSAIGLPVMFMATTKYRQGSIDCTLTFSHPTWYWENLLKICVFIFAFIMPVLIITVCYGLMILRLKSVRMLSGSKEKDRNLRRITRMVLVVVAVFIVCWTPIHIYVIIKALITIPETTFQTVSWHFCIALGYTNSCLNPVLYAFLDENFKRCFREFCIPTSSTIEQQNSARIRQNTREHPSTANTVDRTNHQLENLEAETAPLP

B1: mNbE (N45K, Q117K, Q120P)-6xHis (VHH)
VHH: QVQLVESGGGLVQAGGSLRLSCAASGSISSISTMGWYRQAPGKERELVAAITSGGSTNYADSVKGRFTISRDNAKNTVYLQMNSLKPEDTAVYYCNFKYYSGSYFYKSEYDYWGKGTPVTVSS
Does B1 bind?
Result: binds
